Results taken from article PMC10397247.
Read-outs that look alike come from different tables or passages of the source.

T1: 4H3915-AA
T1 chain: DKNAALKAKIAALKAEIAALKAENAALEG

T2: 4H63-AA
T2 chain: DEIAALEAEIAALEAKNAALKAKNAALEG

T3: 4H3974-AA
T3 chain: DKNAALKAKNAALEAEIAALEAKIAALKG

T4: 4H432-AA
T4 chain: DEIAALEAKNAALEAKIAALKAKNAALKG

T5: 4H446-AA
T5 chain: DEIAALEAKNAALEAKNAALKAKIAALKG

T6: 4H745-AA
T6 chain: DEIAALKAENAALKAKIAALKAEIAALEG

T7: 4H485-AA
T7 chain: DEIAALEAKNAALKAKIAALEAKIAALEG

T8: 4H710-AA
T8 chain: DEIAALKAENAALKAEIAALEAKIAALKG

T9: 4H3410-AA
T9 chain: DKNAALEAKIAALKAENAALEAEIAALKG

T10: 4H3697-AA
T10 chain: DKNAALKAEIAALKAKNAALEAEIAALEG

T11: 4H891-AA
T11 chain: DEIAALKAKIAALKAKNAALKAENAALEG

T12: 4H3165-AA
T12 chain: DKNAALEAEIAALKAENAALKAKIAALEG

T13: 4H94-AA
T13 chain: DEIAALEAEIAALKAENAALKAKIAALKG

T14: 4H629-AA
T14 chain: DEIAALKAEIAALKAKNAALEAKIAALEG

T15: 4H310-AA
T15 chain: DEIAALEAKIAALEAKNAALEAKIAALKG

T16: 4H930-AA
T16 chain: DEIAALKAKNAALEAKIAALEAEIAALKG

T17: 4H570-AA
T17 chain: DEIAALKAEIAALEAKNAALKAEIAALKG

T18: 4H3753-AA
T18 chain: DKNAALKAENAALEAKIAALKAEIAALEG

T19: 4H3590-AA
T19 chain: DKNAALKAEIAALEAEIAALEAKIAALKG

T20: 4H3865-AA
T20 chain: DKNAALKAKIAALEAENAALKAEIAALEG

T21: 4H3395-AA
T21 chain: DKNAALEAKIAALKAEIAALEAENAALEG

T22: 4H458-AA
T22 chain: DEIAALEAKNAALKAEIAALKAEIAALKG

T23: 4H850-AA
T23 chain: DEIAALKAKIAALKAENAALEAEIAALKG

T24: 4H536-AA
T24 chain: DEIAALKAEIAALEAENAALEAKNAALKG

T25: 4H909-AA
T25 chain: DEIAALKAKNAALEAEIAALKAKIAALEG

T26: 4H797-AA
T26 chain: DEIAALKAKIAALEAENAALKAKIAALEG

T27: 4H3120-AA
T27 chain: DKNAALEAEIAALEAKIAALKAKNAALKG

T28: 4H3130-AA
T28 chain: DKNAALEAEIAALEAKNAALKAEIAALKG

T29: 4H3381-AA
T29 chain: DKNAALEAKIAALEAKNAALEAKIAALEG

T30: 4H483-AA
T30 chain: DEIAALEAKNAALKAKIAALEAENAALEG

T31: 4H464-AA
T31 chain: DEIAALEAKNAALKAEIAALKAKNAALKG

T32: 4H953-bA
T32 chain: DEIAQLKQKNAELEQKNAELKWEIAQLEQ

T33: 4H754-bA
T33 chain: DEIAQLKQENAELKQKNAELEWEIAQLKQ

T34: 4H918-bA
T34 chain: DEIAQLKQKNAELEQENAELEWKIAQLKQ

T35: 4H797-bA
T35 chain: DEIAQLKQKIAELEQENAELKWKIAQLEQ

T36: 4H967-bA
T36 chain: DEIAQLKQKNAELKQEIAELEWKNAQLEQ

T37: 4H908-bA
T37 chain: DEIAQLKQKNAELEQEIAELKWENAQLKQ

T38: 4H883-bA
T38 chain: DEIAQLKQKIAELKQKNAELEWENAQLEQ

T39: 4H72-bA
T39 chain: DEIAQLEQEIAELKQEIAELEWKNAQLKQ


Tests used:
4H3915-AA = biological target: T1, 4H3915-AA; test: two-hybrid library CCmax;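 further: natural log of median RNA to DNA barcode read ratio; higher means stronger binding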
4H63-AA = biological target: T2, 4H63-AA; test: two-hybrid library CCmax; conditions: mean of both orientations;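 further: natural log of median RNA to DNA barcode read ratio; higher means stronger binding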
4H3974-AA = biological target: T3, 4H3974-AA; test: two-hybrid library CCmax; conditions: mean of both orientations;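 further: natural log of median RNA to DNA barcode read ratio; higher means stronger binding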
4H432-AA = biological target: T4, 4H432-AA; test: two-hybrid library CCmax; conditions: mean of both orientations;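 further: natural log of median RNA to DNA barcode read ratio; higher means stronger binding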
4H446-AA = biological target: T5, 4H446-AA; test: two-hybrid library CCmax
4H745-AA = biological target: T6, 4H745-AA; test: two-hybrid library CCmax; conditions: mean of both orientations
4H485-AA = biological target: T7, 4H485-AA; test: two-hybrid library CCmax; conditions: mean of both orientations
4H710-AA = biological target: T8, 4H710-AA; test: two-hybrid library CCmax; conditions: mean of both orientations
4H3410-AA = biological target: T9, 4H3410-AA; test: two-hybrid library CCmax; conditions: mean of both orientations
4H3697-AA = biological target: T10, 4H3697-AA; test: two-hybrid library CCmax; conditions: mean of both orientations
4H891-AA = biological target: T11, 4H891-AA; test: two-hybrid library CCmax; conditions: mean of both orientations
4H3165-AA = biological target: T12, 4H3165-AA; test: two-hybrid library CCmax; conditions: mean of both orientations
4H94-AA = biological target: T13, 4H94-AA; test: two-hybrid library CCmax; conditions: mean of both orientations
4H629-AA = biological target: T14, 4H629-AA; test: two-hybrid library CCmax; conditions: mean of both orientations
4H310-AA = biological target: T15, 4H310-AA; test: two-hybrid library CCmax
4H930-AA = biological target: T16, 4H930-AA; test: two-hybrid library CCmax; conditions: mean of both orientations
4H570-AA = biological target: T17, 4H570-AA; test: two-hybrid library CCmax; conditions: mean of both orientations
4H3753-AA = biological target: T18, 4H3753-AA; test: two-hybrid library CCmax; conditions: mean of both orientations
4H3590-AA = biological target: T19, 4H3590-AA; test: two-hybrid library CCmax; conditions: mean of both orientations
4H3865-AA = biological target: T20, 4H3865-AA; test: two-hybrid library CCmax; conditions: mean of both orientations
4H3395-AA = biological target: T21, 4H3395-AA; test: two-hybrid library CCmax; conditions: mean of both orientations
4H458-AA = biological target: T22, 4H458-AA; test: two-hybrid library CCmax; conditions: mean of both orientations
4H850-AA = biological target: T23, 4H850-AA; test: two-hybrid library CCmax; conditions: mean of both orientations
4H536-AA = biological target: T24, 4H536-AA; test: two-hybrid library CCmax; conditions: mean of both orientations
4H909-AA = biological target: T25, 4H909-AA; test: two-hybrid library CCmax; conditions: mean of both orientations
4H797-AA = biological target: T26, 4H797-AA; test: two-hybrid library CCmax; conditions: mean of both orientations
4H3120-AA = biological target: T27, 4H3120-AA; test: two-hybrid library CCmax
4H3130-AA = biological target: T28, 4H3130-AA; test: two-hybrid library CCmax; conditions: mean of both orientations
4H3381-AA = biological target: T29, 4H3381-AA; test: two-hybrid library CCmax; conditions: mean of both orientations
4H483-AA = biological target: T30, 4H483-AA; test: two-hybrid library CCmax; conditions: mean of both orientations
4H464-AA = biological target: T31, 4H464-AA; test: two-hybrid library CCmax
4H953-bA = biological target: T32, 4H953-bA; test: two-hybrid library CCNG1
4H754-bA = biological target: T33, 4H754-bA; test: two-hybrid library CCNG1
4H918-bA = biological target: T34, 4H918-bA; test: two-hybrid library CCNG1
4H797-bA = biological target: T35, 4H797-bA; test: two-hybrid library CCNG1
4H967-bA = biological target: T36, 4H967-bA; test: two-hybrid library CCNG1
4H908-bA = biological target: T37, 4H908-bA; test: two-hybrid library CCNG1
4H883-bA = biological target: T38, 4H883-bA; test: two-hybrid library CCNG1
4H72-bA = biological target: T39, 4H72-bA; test: two-hybrid library CCNG1

Binder	interaction score (4H63-AA)	interaction score (4H745-AA)	interaction score (4H485-AA)	interaction score (4H710-AA)	interaction score (4H3410-AA)	interaction score (4H3697-AA)	interaction score (4H891-AA)	interaction score (4H3165-AA)	interaction score (4H94-AA)	interaction score (4H629-AA)	interaction score (4H930-AA)	interaction score (4H570-AA)	interaction score (4H3753-AA)	interaction score (4H3590-AA)	interaction score (4H3865-AA)	interaction score (4H3395-AA)	interaction score (4H458-AA)	interaction score (4H850-AA)	interaction score (4H536-AA)	interaction score (4H909-AA)	also measured
DEIAALEAKIAALEAKNAALEAKIAALKG [4H310-AA]		-0.998	-0.778	-0.577	-0.251	0.375	-0.168	-1.5	-0.904	-0.767	-1.11	1.97	-1.8	-0.923	1.13	-1.03	1.7	1.33	-0.922	-1.39	interaction score (4H310-AA): 1.89; interaction score (4H797-AA): -0.563; interaction score (4H3120-AA; mean of both orientations): -1.43; interaction score (4H3130-AA): -0.0638; interaction score (4H3381-AA): 0.757
DEIAALEAKNAALEAKNAALKAKIAALKG [4H446-AA]	-1.67																				interaction score (4H483-AA): -2.13; interaction score (4H464-AA; mean of both orientations): -1.77; interaction score (4H446-AA): -1.68
DEIAQLEQEIAELKQEIAELEWKNAQLKQ [4H72-bA]																					interaction score (4H953-bA): -0.161; interaction score (4H754-bA): -0.173; interaction score (4H918-bA): -0.479; interaction score (4H797-bA): -0.956; interaction score (4H967-bA): -0.0446; interaction score (4H908-bA): -0.464; interaction score (4H883-bA): 1.05; interaction score (4H72-bA): 0.83

Now from value to binder, other results behind:

interaction score (4H63-AA)	interaction score (4H745-AA)	interaction score (4H485-AA)	interaction score (4H710-AA)	interaction score (4H3410-AA)	interaction score (4H3697-AA)	interaction score (4H891-AA)	interaction score (4H3165-AA)	interaction score (4H94-AA)	interaction score (4H629-AA)	interaction score (4H930-AA)	interaction score (4H570-AA)	interaction score (4H3753-AA)	interaction score (4H3590-AA)	interaction score (4H3865-AA)	interaction score (4H3395-AA)	interaction score (4H458-AA)	interaction score (4H850-AA)	interaction score (4H536-AA)	interaction score (4H909-AA)	Binder	also measured
0.485																				DKNAALKAKIAALKAEIAALKAENAALEG [4H3915-AA]	interaction score (4H3915-AA): -0.838; interaction score (4H3974-AA): -0.146; interaction score (4H432-AA): -1.16; interaction score (4H446-AA; mean of both orientations): -1.7
	-1.09	-0.737	-1.56	-1.25	-1.39	-0.991	-1.33	-1.07	-1.66	-1.5	-0.988	0.619	1.08	-1.52	2.17	-1.3	-0.918	1.51	-1.58	DKNAALEAEIAALEAKIAALKAKNAALKG [4H3120-AA]	interaction score (4H797-AA): -1.9; interaction score (4H3120-AA): 1.15; interaction score (4H3130-AA): -0.632; interaction score (4H3381-AA): -1.79
-1.22																				DEIAALEAKNAALKAEIAALKAKNAALKG [4H464-AA]	interaction score (4H483-AA): -0.618; interaction score (4H464-AA): -1.22
